B1: unnamed (parent)
chain: MFGLGHNSKEISMSHIGTKFILAEKFTFDPLSNTLIDKEDSEEIIRLGSNESRILWLLAQRPNEVISRNDLHDFVWREQGFEVDDSSLTQAISTLRKMLKDSTKSPQYVKTVPKRGYQLIARVETVEEEMARESEAAHDISQPESVNEYAESSSVPSSATVVNTPQPANVVTNKSAPNLGNRLLILIAVLLPLAVLLLTNPSQTSFKPLTVVDGVAVNMPNNHPDLSNWLPSIELCVKKYNEKHTGGLKPIEVIATGGQNNQLTLNYIHSPEVSGENITLRIVANPNDAIKVCE

Variants of: B1
Settings: with partner chain of the complex shown; read off a plot
Work on MFGLGHNSKEISMSHIGTKFILAEKFTFDPLSNTLIDKEDSEEIIRLGSNESRILWLLAQRPNEVISRNDLHDFVWREQGFEVDDSSLTQAISTLRKMLKDSTKSPQYVKTVPKRGYQLIARVETVEEEMARESEAAHDISQPESVNEYAESSSVPSSATVVNTPQPANVVTNKSAPNLGNRLLILIAVLLPLAVLLLTNPSQTSFKPLTVVDGVAVNMPNNHPDLSNWLPSIELCVKKYNEKHTGGLKPIEVIATGGQNNQLTLNYIHSPEVSGENITLRIVANPNDAIKVSE [chain 1 C293S] yielded a response of 45%.
MFGLGHNSKEISMSHIGTKFILAEKFTFDPLSNTLIDKEDSEEIIRLGSNESRILWLLAQRPNEVISRNDLHDFVRREQGFEVDDSSLTQAISTLRKMLKDSTKSPQYVKTVPKRGYQLIARVETVEEEMARESEAAHDISQPESVNEYAESSSVPSSATVVNTPQPANVVTNKSAPNLGNRLLILIAVLLPLAVLLLTNPSQTSFKPLTVVDGVAVNMPNNHPDLSNWLPSIELCVKKYNEKHTGGLKPIEVIATGGQNNQLTLNYIHSPEVSGENITLRIVANPNDAIKVSE [chain 1 C293S W76R] gave a response of 5%.

From article PMC7496328
